The source of these data is the supplement of paper PMC9233669.

In data set [1] the test system is biotinyl-Leu-oxazolone. The data set is described as follows: self-aminoacylation, catalytic enhancement (BLO) (fold over background); higher = more active; k-Seq, kA / k0A0; sequences stand for … in GGGAAUGGAUCCACAUCUACGAAUUC…UUCACUGCAGACUUGACGAAGCUG
The method in brief: (§1)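 Working in 50 μL HEPES/NaCl/KCl/MgCl2/CaCl2 buffer with 5% acetonitrile at pH 6.9–7.0, mutagenized RNA pools (0.43 μM; 21-nt variable region) were reacted with 2–1250 μM of each biotinyl-aminoacyl-oxazolone for 90 minutes at room temperature. Streptavidin capture followed, with quantification by triplicate qPCR and Illumina sequencing. Catalytic enhancement is reported as median kA over the uncatalyzed rate, the low-activity peak of a bimodal Gaussian fit to the data.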

Data set [2] relates to biotinyl-Ile-oxazolone. The data set is described as follows: self-aminoacylation, catalytic enhancement (BIO) (fold over background); higher = more active; k-Seq, kA / k0A0; sequences stand for … in GGGAAUGGAUCCACAUCUACGAAUUC…UUCACUGCAGACUUGACGAAGCUG
The method in brief: as §1

In data set [3] the test system is biotinyl-Met-oxazolone. The data set is described as follows: self-aminoacylation, catalytic enhancement (BMO) (fold over background); higher = more active; k-Seq, kA / k0A0; sequences stand for … in GGGAAUGGAUCCACAUCUACGAAUUC…UUCACUGCAGACUUGACGAAGCUG
An outline of the steps: as §1

The test system of data set [4] is biotinyl-Phe-oxazolone. The data set is described as follows: self-aminoacylation, catalytic enhancement (BFO) (fold over background); higher = more active; k-Seq, kA / k0A0; sequences stand for … in GGGAAUGGAUCCACAUCUACGAAUUC…UUCACUGCAGACUUGACGAAGCUG
An outline of the steps: as §1

Data set [5] has as its system biotinyl-Trp-oxazolone. The data set is described as follows: self-aminoacylation, catalytic enhancement (BWO) (fold over background); higher = more active; k-Seq, kA / k0A0; sequences stand for … in GGGAAUGGAUCCACAUCUACGAAUUC…UUCACUGCAGACUUGACGAAGCUG
An outline of the steps: as §1

Data set [6] deals with biotinyl-Val-oxazolone. Kind of data set: self-aminoacylation, catalytic enhancement (BVO) (fold over background); higher = more active; k-Seq, kA / k0A0; sequences stand for … in GGGAAUGGAUCCACAUCUACGAAUUC…UUCACUGCAGACUUGACGAAGCUG
An outline of the steps: as §1

Fewer inactive variants are shown than the library holds.

“AUUCACCUAGGUAAUCAGGUG [Fam2.2 aminoacylation ribozyme variant]”: the self-aminoacylation in data set [1] came to 1.31; in data set [2], 0.967; in data set [3], 1.25; in data set [4] it was 1.21; in data set [5], 0.933; in data set [6], 0.989.
On to “AUUGCCGUGGUCAUCGAGUGA [Fam2.1 aminoacylation ribozyme variant]”, for which the self-aminoacylation in data set [1] was determined as 6.18; in data set [2], 2.89; in data set [3], 4.92; in data set [4], 33.7; in data set [5], 5.71; in data set [6] it was 3.45.
As for “AUCCACCUAGGGCAUCGGGUG [Fam2.2 aminoacylation ribozyme variant]”, the self-aminoacylation in data set [1] was found to be 5.15; in data set [2], 3.45; in data set [3], 4.46; in data set [4] it was 22.1; in data set [5], 4.35; in data set [6] it was 4.02.
Consider “GUUCCCCUAGGUCAUCGGGUG [Fam2.2 aminoacylation ribozyme variant]”, for which the self-aminoacylation was 14.2 in data set [1]; 7.72 in data set [2]; 13.3 in data set [3]; 94.8 in data set [4]; 12.1 in data set [5]; 8.06 in data set [6].
For “CUACCUCAAACAAUCGGUCGG [Fam1A.1 aminoacylation ribozyme variant]”, the self-aminoacylation in data set [1] is 1.55; in data set [2], 1.28; in data set [3] it was 1.5; in data set [4] it was 1.56; in data set [5], 1.78; in data set [6], 1.25.
Turning to “AUUACUCUGGUCCUCGAGUGA [Fam2.1 aminoacylation ribozyme variant]”, the self-aminoacylation worked out at 4.34 in data set [1]; 2.31 in data set [2]; 3.62 in data set [3]; 18.2 in data set [4]; 4.62 in data set [5]; 2.01 in data set [6].
“CCGCACUUCAAGCAAUGGGUC [Fam1B.1 aminoacylation ribozyme variant]”: the self-aminoacylation is 1.04 in data set [1]; 0.918 in data set [2]; 0.802 in data set [3]; 1.13 in data set [4]; 1.08 in data set [5]; 1.21 in data set [6].
On to “AUUACCAUGGUCAUCGAGUAA [Fam2.1 aminoacylation ribozyme variant]”, for which the self-aminoacylation in data set [1] was 1.33; in data set [2] it was 1.41; in data set [3] it was 1.7; in data set [4] it was 1.09; in data set [5] it was 1.28; in data set [6], 1.42.
Regarding “AUUCACCUACGUCAGCGGGUG [Fam2.2 aminoacylation ribozyme variant]”, the self-aminoacylation in data set [1] was determined as 6.17; in data set [2], 2.95; in data set [3], 4.72; in data set [4] it was 31.4; in data set [5] it was 4.14; in data set [6], 2.71.
Consider “AUUCACCCAGGUCAUCCGGUG [Fam2.2 aminoacylation ribozyme variant]”, for which the self-aminoacylation in data set [1] was 12.7; in data set [2], 6.38; in data set [3], 8.64; in data set [4], 90.7; in data set [5] it was 8.51; in data set [6] it was 6.29.
Take “CUACUCCAAACACUCGGUCUG [Fam1A.1 aminoacylation ribozyme variant]”: the self-aminoacylation stood at 1.03 in data set [1]; 1.12 in data set [2]; 0.93 in data set [3]; 1.15 in data set [4]; 1.52 in data set [5]; 0.962 in data set [6].
For “CUAAUUCAAACCAUCGGUCUG [Fam1A.1 aminoacylation ribozyme variant]”, the self-aminoacylation in data set [1] was found to be 0.949; in data set [2] it was 0.967; in data set [3], 0.817; in data set [4], 0.795; in data set [5], 0.589; in data set [6], 0.848.
Consider “CCACACUUCAGACAAUCGGUC [Fam1B.1 aminoacylation ribozyme variant]”, for which the self-aminoacylation in data set [1] turned out to be 1.53; in data set [2] it was 1.17; in data set [3] it was 0.902; in data set [4], 1.33; in data set [5] it was 1.29; in data set [6] it was 1.26.
On to “CCAUACUUCAAGCAAUAGGUC [Fam1B.1 aminoacylation ribozyme variant]”, for which the self-aminoacylation in data set [1] amounted to 0.597; in data set [2] it was 0.72; in data set [3], 0.505; in data set [4], 1.03; in data set [5] it was 0.513; in data set [6], 0.633.
For the sequence “CCACACUCCAAGGAAUCGGUC [Fam1B.1 aminoacylation ribozyme variant]”, the self-aminoacylation in data set [1] turned out to be 1.08; in data set [2], 1.35; in data set [3] it was 1.32; in data set [4] it was 1.46; in data set [5], 1.34; in data set [6], 1.31.
As for “AUUCGCCUAGGUCGUCGGGUG [Fam2.2 aminoacylation ribozyme variant]”, the self-aminoacylation in data set [1] came to 2.18; in data set [2], 1.56; in data set [3], 2.28; in data set [4] it was 11.6; in data set [5], 1.51; in data set [6], 2.22.
Regarding “GCCCACUUCAAGCAAUCGGUC [Fam1B.1 aminoacylation ribozyme variant]”, the self-aminoacylation amounted to 1.77 in data set [1]; 1.42 in data set [2]; 1.27 in data set [3]; 24.1 in data set [4]; 18.7 in data set [5]; 1.67 in data set [6].
As to “AAAUUUGCUACUAGUCGCAAG [Fam3.1 aminoacylation ribozyme variant]”, the self-aminoacylation in data set [1] is 1.59; in data set [2], 2.05; in data set [3], 1.96; in data set [4] it was 1.86; in data set [5] it was 2.54; in data set [6], 1.63.
In the case of “AUUCACCUAGGUUAUCGGGUA [Fam2.2 aminoacylation ribozyme variant]”, the self-aminoacylation was 3.54 in data set [1]; 2.02 in data set [2]; 2.55 in data set [3]; 13.3 in data set [4]; 3.37 in data set [5]; 2.49 in data set [6].
“GCACACUUCAAGCAAUCGGGC [Fam1B.1 aminoacylation ribozyme variant]”: the self-aminoacylation in data set [1] was 3.02; in data set [2], 3.11; in data set [3], 2.58; in data set [4], 13.7; in data set [5], 4.23; in data set [6], 3.09.
As to “CCACACUUCAAGCAAUCGUUG [Fam1B.1 aminoacylation ribozyme variant]”, the self-aminoacylation in data set [1] was determined as 0.776; in data set [2] it was 0.944; in data set [3], 0.877; in data set [4], 1.26; in data set [5], 1.15; in data set [6], 0.908.
As to “AAGUAUGCUAUUAGUCGCAAG [Fam3.1 aminoacylation ribozyme variant]”, the self-aminoacylation stood at 1.68 in data set [1]; 1.66 in data set [2]; 1.38 in data set [3]; 1.49 in data set [4]; 1.76 in data set [5]; 1.59 in data set [6].
In the case of “CCACACUUCAGUCAAUCGGUC [Fam1B.1 aminoacylation ribozyme variant]”, the self-aminoacylation in data set [1] worked out at 1.03; in data set [2], 1.11; in data set [3], 1.02; in data set [4], 1.06; in data set [5] it was 1.31; in data set [6], 0.965.
Regarding “AUUCAGCUGGGUCAUCGGGUG [Fam2.2 aminoacylation ribozyme variant]”, the self-aminoacylation stood at 5.07 in data set [1]; 3.79 in data set [2]; 5.66 in data set [3]; 37.9 in data set [4]; 4.72 in data set [5]; 4.76 in data set [6].
Consider “CCACGCUUUAAGCAAUCGGUC [Fam1B.1 aminoacylation ribozyme variant]”, for which the self-aminoacylation in data set [1] was determined as 0.682; in data set [2], 0.737; in data set [3], 0.713; in data set [4], 1.27; in data set [5], 0.998; in data set [6], 0.787.
